Consider 18 molecules from article PMC9811221 (The Journal of Biological Chemistry, 2022).

A word on the Kd: it is a measure of binding affinity in units of concentration. Low readings indicate higher affinity, high ones lower affinity. For orientation: koff means the first-order rate constant of dissociation. Higher therefore signals a short-lived complex. The kon is the rate constant with which the complex forms. Low readings indicate slower complex formation, high ones faster complex formation.

Bounds are passed on as bounds.

The chains are these.
B1: VHH4 (VHH)
VHH: EVQLVESGGGLVQAGDSLRLSCTASGRNFIIYTLAWFRQAPGKEREFVAGISWSGGSTKYADPVKGRFTISRDNAKNTVYLQMNSLHSDDTGVYYCGAQRGATIDLKYGMESWGKGTQVTVSS
notes: The His6 tag is TEV-cleavable; also called anti-PD-L1 VHH 4
B2: VHH15 (VHH)
VHH: EVQLVESGGGLVQAGGSLRLSCAASGRTSSIYVMAWFRQAPGKERELVAAISTSGNTVYPNSVKGRFTISRDNAKSTVYLQMNSLKPEDTAVYFCNADRTTYSSGRYSSQDYWGQGTQVTVSS
notes: The His6 tag is TEV-cleavable; also called anti-PD-L1 VHH 15
B3: VHH9 (VHH)
VHH: QVQLVESGGKLVQAGGSLRLSCAASGRSIVPYAMGWFRQAPGKEREFVAVIDWSGFRTYYADSVKGRFTISRDNAKNTVYLEMSSLKPEDTAVYYCAQAGYGLGYRIHANEYHYWGQGTQVTVSS
notes: The His6 tag is TEV-cleavable; also called anti-PD-L1 VHH 9; source: E. coli BL21(DE3), soluble expression, purified (Ni-NTA, gel filtration)
B4: VHH14 (VHH)
VHH: EVQLVESGGGLVQAGDSLRLSCTASARTFIKYAMGWFRQAPGKEREFVAAISWSGSRTTYADSVKGRFTISRDNDKNTVYLQMNTLEPEDTAIYYCAKAKGGYHSSQYDYDYWGQGTQVTVSS
notes: TEV-cleavable tag
B5: VHH15 (VHH)
VHH: B2 VHH
notes: TEV-cleavable tag
B6: VHH18 (VHH)
VHH: EVQLVESGGGWVQTGGSLRLSCAASGSTFDIKRMAWYRQAPGKEREFVADIWSEGSTHYADSVKGRFTISRDSAKNTMYLYMNSLKPEDTAVYYCNVEYVLRTYWGQGTQVTVSS
notes: TEV-cleavable tag; CDR 1 and 2 identical to VHH16, CDR 3 distinct
B7: VHH19 (VHH)
VHH: EVQLVESGGGSVQAGASLRLSCAASGFPFSHYAIGWFRQAPGKEREFVTSIDRSGINTYYADSVKGRFTISRDNAKNAVSLQMNSLKPDDTAVYYCAAGPRLVTSPELYPYWGQGTQVTVSS
notes: TEV-cleavable tag
B8: VHH16 (VHH)
VHH: QVQLVESGGGWVQTGGSLRLSCAASGSTFDIKRMAWYRQAPGKEREFVADIWSEGSTHYADSVKGRFTISRDSAKNTMYLQMNSLKPEDTAAYYCNVGNTWGQGTQVTVSS
notes: TEV-cleavable tag; CDR 1 and 2 identical to VHH18, CDR 3 distinct
B9: VHH22 (VHH)
VHH: EVQLVESGGGLVQAGGSLKLSCAASGRTFSGNTMGWFRQAPGKERELVTVVSSGGSTYYSDSVKGRFTISRDNALNTVYLQMNSLKPEDTAVYYCAAASLISGLTTTRRLFDYWGQGTQVTVSS
notes: TEV-cleavable tag
B10: VHH20 (VHH)
VHH: EVQLVESGGGSVQAGGSLRLSCVASGIAFSESPMAWYRQAPGRQREFVADVSADNKPYYRDTLKGRFTISRDNDKNSVYLQMNFLQPEDTAVYYCNALLLEAGTIKNYWGQGTQVTVSS
notes: TEV-cleavable tag
B11: VHH13 (VHH)
VHH: EVQLVESGGGLVQPGGSLRLSCAASGSTFSINAMGWYRQAPGKQRELVAAISSGGSTNYADSVKGRFTISRDNAKNTVYLQMNSLKPEDTAVYYCNTINIGTFISLGGSPLGSWGQGTQVTVSS
notes: TEV-cleavable tag
B12: VHH4 (VHH)
VHH: B1 VHH
notes: TEV-cleavable tag
B13: VHH9 (VHH)
VHH: B3 VHH
notes: TEV-cleavable tag; source: E. coli BL21(DE3), soluble, purified (Ni-NTA, gel filtration)
B14: VHH17 (VHH)
VHH: EVQLVESGGGLVQAGGSLRLSCAASGRTFSAYAMGWFRQAPGKERELVAGISWSGGMTYYADSVKGRFTISRDNAKNMVYLQMNSLKAEDTAVYYCAGGFSAVVPDHPDEYHYWGQGTQVTVSS
notes: TEV-cleavable tag
B15: VHH21 (VHH)
VHH: EVQLVESGGGLVQTGGSLRLSCAASGRTFDSYFMGWFRQAPGKEREFVAAISGSGSLTSYEDGVKGRFTISRDNAKNTVSLQMTNLKPEDTAVYYCASCLSCAFINGRQVDSRYYNYWGQGTQVTVSS
notes: TEV-cleavable tag; Two cysteines within CDR 3 form an additional disulfide bond (confirmed by mass spectrometry)
B16: VHH2 (VHH)
VHH: QVQLVESGGGSVQPGGSLRLSCAASGSIVGHAVQAWYRQAPGKQRDLVAQLFDNGKTNIADSVKGRFTISGDNAKNTFYLQMNNLKPEDTAIYYCAILILPSMGVPPNIYEGQGTQVTVSS
notes: TEV-cleavable tag; source: E. coli BL21(DE3), purified (Ni-NTA, gel filtration)
B17: VHH10 (VHH)
VHH: EVQLVESGGGLVQAGDSLRLSCAASGRAFSGYAMAWFRQAPEKEREFVAAITWRGGTPYYAVRAKGRFTISRDSAKNTAYLEVNSLKPEDTATYYCAAPSLQVATMDVKDYAYWGQGTLVTVSS
notes: TEV-cleavable tag
B18: extracellular region of CD80 (residues 35-235) (domain or fragment, human, UniProt P33681 35-235, looked up)
chain: VIHVTKEVKEVATLSCGHNVSVEELAQTRIYWQKEKKMVLTMMSGDMNIWPEYKNRTIFDITNNLSIVILALRPSDEGTYECVVLKYEKDAFKREHLAEVTLSVKADFPTPSISDFEIPTSNIRRIICSTSGGFPEPHLSWLENGEELNAINTTVSQDPETELYAVSSKLDFNMTTNHSFMCLIKYGHLRVNQTFNWNTTK
notes: CD80 (Cluster of differentiation 80, B7-1), human; construct 1-235 with the native signal peptide; final purified protein holds residues 35 to 235 after signal peptide cleavage; Glycosylated form; also called B7-1; source: expiCHO cells with kifunensine, secreted, purified (Ni-NTA, gel filtration)

T1 sequence (Q9NZQ7 19-238): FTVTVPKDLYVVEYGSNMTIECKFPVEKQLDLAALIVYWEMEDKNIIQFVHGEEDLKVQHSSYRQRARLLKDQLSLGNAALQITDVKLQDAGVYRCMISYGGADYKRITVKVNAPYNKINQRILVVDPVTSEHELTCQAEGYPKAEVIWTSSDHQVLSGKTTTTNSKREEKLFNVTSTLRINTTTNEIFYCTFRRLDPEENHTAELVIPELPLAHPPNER
T4 sequence (Q9NZQ7 18-134): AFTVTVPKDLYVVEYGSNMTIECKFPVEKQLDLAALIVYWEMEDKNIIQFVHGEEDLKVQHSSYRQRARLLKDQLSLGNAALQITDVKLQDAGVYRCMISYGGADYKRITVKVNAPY

The first assay has as its target T1, PD-L1-Fc fusion protein (Homo sapiens, UniProt Q9NZQ7).
T1 construct: PD-L1 (programmed cell death 1 ligand 1, B7-H1, CD274) part of a bought PD-L1-Fc fusion protein; Probably the extracellular region; Held on Protein G biosensors by the Fc; also called programmed death-ligand 1; B7-H1; source: bought: Invitrogen
Briefly: BLI; PD-L1-Fc (5 ug/ml) loaded on Protein G biosensors, VHH in solution (10 uM to 0.3 nM); Octet QKe, 25 °C, PBS pH 7.4, 0.01% Tween-20, 0.1% BSA; kinetic analysis, global model 'association kinetics' in Prism 9. As to conditions: both partners purified.
In turn, B1 had a Kd of 48 nM, a koff of 0.029 s⁻¹ and a kon of 590000 M⁻¹ s⁻¹.

The target of a further assay is T1, PD-L1-Fc fusion protein. Briefly: BLI; PD-L1-Fc (5 ug/ml) loaded on Protein G biosensors, VHH in solution (10 uM to 0.3 nM); Octet QKe, 25 °C, PBS pH 7.4, 0.01% Tween-20, 0.1% BSA; steady-state analysis of the maximum responses, one-site specific-binding model in Prism 9. As to conditions: both partners purified.
For the molecule B2, binding was characterised by a dissociation constant (Kd) of 9.2 nM.
Still for that read-out and setting: in the case of B1 it was 59 nM; in that of B3, 0.7 nM.

In a further assay the target is T2, PD-L1 D1D2 (residues 18-237) (human, UniProt Q9NZQ7).
T2 construct: PD-L1 (programmed death-ligand 1, B7-H1, CD274), human, extracellular region D1D2, residues 18-237; also called extracellular region of PD-L1
T2 sequence (Q9NZQ7 18-237): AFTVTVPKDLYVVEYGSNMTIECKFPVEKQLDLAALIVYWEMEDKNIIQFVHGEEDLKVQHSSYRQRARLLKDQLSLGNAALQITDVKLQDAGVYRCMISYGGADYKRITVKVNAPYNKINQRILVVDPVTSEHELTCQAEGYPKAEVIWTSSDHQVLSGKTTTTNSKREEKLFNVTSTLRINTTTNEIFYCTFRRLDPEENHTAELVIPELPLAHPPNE
The experiment in a line: BLI; biotinylated avitagged PD-1 (5 ug/ml) on streptavidin biosensors; 3 uM PD-L1 D1D2 alone or with 20 uM VHH; 25 C. As to conditions: both partners purified.
B4: the “percent inhibition of PD-L1 D1D2 binding to PD-1 at 20 uM VHH” value (“percent inhibition of PD-L1 D1D2 binding” for short) was above 90%.
Still for that read-out and setting: then B5, with above 90%; and B6, with above 90%.
Still for that read-out and setting: in the case of B7 it was above 90%; in that of B8, above 90%.
Still for that read-out and setting: then B9, with above 90%; and B10, with above 90%.
On to B11, for which the “percent inhibition of PD-L1 D1D2 binding” value was above 90%.
Same read-out and setting: in the case of B12 it was above 90%; in that of B13, above 90%; in that of B14, above 90%.
The same measure, in the same setting: in the case of B15 it was above 90%; in that of B16, above 90%.
In the case of B17, the “percent inhibition of PD-L1 D1D2 binding” value is above 90%.

The target of a further assay is T3, PD-L2-Fc (Generon) (Homo sapiens (assumed), UniProt Q9BQ51).
T3 construct: PD-L2 (programmed cell death 1 ligand 2), extracellular region; No catalogue number printed; also called extracellular region of PD-L2 with a Fc tag; source: bought: Generon
T3 sequence (Q9BQ51 20-220): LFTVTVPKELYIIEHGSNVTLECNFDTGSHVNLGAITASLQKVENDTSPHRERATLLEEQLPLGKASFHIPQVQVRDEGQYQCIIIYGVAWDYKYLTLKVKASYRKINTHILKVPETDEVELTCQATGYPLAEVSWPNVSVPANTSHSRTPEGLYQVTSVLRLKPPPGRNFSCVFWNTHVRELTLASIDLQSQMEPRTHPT
Briefly: BLI; PD-L2-Fc (2 ug/ml) on Protein G biosensors; VHHs at 10 uM; 25 C. As to conditions: both partners purified.
Consider B4, for which the binding result was “no binding (tested: 10 μM)”.
For B5, the binding result is recorded as “no binding (tested: 10 μM)”.
As to B6, the binding result is “no binding (tested: 10 μM)”.
Same read-out and setting: in the case of B7 it was “no binding (tested: 10 μM)”; in that of B8, “no binding (tested: 10 μM)”; in that of B9, “no binding (tested: 10 μM)”.
Still for that read-out and setting: then B10, with “no binding (tested: 10 μM)”; and B11, with “no binding (tested: 10 μM)”.
Same read-out and setting: in the case of B12 it was “no binding (tested: 10 μM)”; in that of B13, “no binding (tested: 10 μM)”; in that of B14, “no binding (tested: 10 μM)”.
For the molecule B15, the binding result is listed as “no binding (tested: 10 μM)”.
As to B16, the binding result is “no binding (tested: 10 μM)”.
Still for that read-out and setting: in the case of B17 it was “no binding (tested: 10 μM)”.

The next assay concerns the target T4, PD-L1 D1 (residues 18-134) (human, UniProt Q9NZQ7 18-134).
T4 construct: PD-L1 (programmed death-ligand 1, B7-H1, CD274), human, IgV-like domain D1, residues 18-134; Uniformly 15N/13C labelled for NMR; the sentence on constructs can be read as giving a C-terminal avitag to this construct too; also called PD-L D1
Briefly: NMR titration; chemical shift perturbation (minimal shift) mapping: labelled PD-L1 D1 free and with a 60% molar excess of CD80; 15N/1H TROSY; 25 C; 25 mM KH2PO4 pH 7.4, 25 mM NaCl, 10 uM EDTA. As to conditions: both partners purified.
B18: the binding result is recorded as “binds”.
